± gives the standard error. Fewer inactive variants are shown than the library holds.
B1: glmS ribozyme (parent)
chain: AUAAAAGCGCCAGAACUACAGAAAUGUAGUUGACGAGGAGGAGGUUUAUCGAAUUUUCGGCGGAUGCCUCCAAA

Key:
Conditions in all cases: with glucosamine-6-phosphate
[1] = variants of: B1; assay: self-cleavage kobs at 40 uM GlcN6P; higher = faster cleavage; RNA array
Summary of the method: (§1)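 Barcoded ribozyme variants were transcribed in situ on sequenced MiSeq chips by E. coli RNA polymerase. At 37 °C, a hybridised Cy3 probe tracked them while glucosamine-6-phosphate (40 μM to 10 mM) in HEPES/KCl/Mg(OAc)2 buffer flowed in and tiles were imaged over ~14 h. Per-tile medians of signals normalised to baseline and to non-cleaving reference variants were fit to one- or two-exponential decays, giving kobs. kcat and KM came from weighted Michaelis–Menten fits across concentrations.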

[2] = variants of: B1; assay: self-cleavage kobs at 10000 uM GlcN6P; higher = faster cleavage; RNA array
Summary of the method: as §1

[3] = variants of: B1; assay: self-cleavage kobs at 2500 uM GlcN6P; higher = faster cleavage; RNA array
Summary of the method: as §1

[4] = variants of: B1; assay: self-cleavage kobs at 160 uM GlcN6P; higher = faster cleavage; RNA array
Summary of the method: as §1

[5] = variants of: B1; assay: self-cleavage kobs at 640 uM GlcN6P; higher = faster cleavage; RNA array
Summary of the method: as §1

AUAAAAGCGCCAGAACUACAGAAAUGUAGUUGACCAGGAGGAGGUUUAUCGAAUUUUCGGUAGAUGCCUCCAAA
self-cleavage kobs at 40 uM GlcN6P [1]: < 1e-05 s⁻¹ | self-cleavage kobs at 10000 uM GlcN6P [2]: < 1e-05 s⁻¹

AUAAAAGCGCCAGAACUACAGAAAUGUAGUUGGCGAGGGGGAGGUUUAUCGAAUUUUCGUCGGAUGCCUCCAAA
self-cleavage kobs at 40 uM GlcN6P [1]: < 1e-05 s⁻¹ | self-cleavage kobs at 2500 uM GlcN6P [3]: < 1e-05 s⁻¹ | self-cleavage kobs at 10000 uM GlcN6P [2]: < 1e-05 s⁻¹

AUAAAGGCGCCAGAACUACAGAAAUGUAGCUGACAAGGGAGAGGUUUAUCGAAUUUUCGGCGGAUACCUCCAAA
self-cleavage kobs at 40 uM GlcN6P [1]: < 1e-05 s⁻¹ | self-cleavage kobs at 10000 uM GlcN6P [2]: < 1e-05 s⁻¹

AUAAAAGCGCCAGAACUACAGAAAUGUAGUGGACGAGGAGGAGGUUUAUCGAAUUGUCGGCGGAUGCCUCCAAA
self-cleavage kobs at 40 uM GlcN6P [1]: 0.000123 ± 2.1e-05 s⁻¹ | self-cleavage kobs at 160 uM GlcN6P [4]: 0.000145 ± 4e-05 s⁻¹ | self-cleavage kobs at 640 uM GlcN6P [5]: 0.000347 ± 8.2e-05 s⁻¹ | self-cleavage kobs at 2500 uM GlcN6P [3]: 0.00132 ± 0.00034 s⁻¹ | self-cleavage kobs at 10000 uM GlcN6P [2]: 0.00342 ± 0.00086 s⁻¹

AUAAAAGCGCCAGAACUACAGAAAUGUAGUUGACGAAGAGGUGGUUUAUCGAAUUUUCGGCGGAUGCCUACAAA
self-cleavage kobs at 40 uM GlcN6P [1]: < 1e-05 s⁻¹

AUAAAUGCGCCAGAACUACAGAAAUGUAGUUGACGAGGAGGAGGUUUAUCGAAUUUUACGCGGGUGCCUCCAAA
self-cleavage kobs at 40 uM GlcN6P [1]: < 1e-05 s⁻¹ | self-cleavage kobs at 10000 uM GlcN6P [2]: < 1e-05 s⁻¹

AUAAAAGCGCUAGAACUACAGAAAUGUAGCUGACGAGGAGGAGGUUUAUUGAAUUUUCGGCGGAUGCCUCCAAA
self-cleavage kobs at 40 uM GlcN6P [1]: < 1e-05 s⁻¹ | self-cleavage kobs at 10000 uM GlcN6P [2]: < 1e-05 s⁻¹

AUAAAAGCGCCAGAACUACAGAAAUGUAGUUGACGAGGAGGAAGUUUUUCGAAUUUUCGGCGGAUGCCUCCAAA
self-cleavage kobs at 40 uM GlcN6P [1]: < 1e-05 s⁻¹ | self-cleavage kobs at 160 uM GlcN6P [4]: < 1e-05 s⁻¹ | self-cleavage kobs at 640 uM GlcN6P [5]: < 1e-05 s⁻¹ | self-cleavage kobs at 2500 uM GlcN6P [3]: < 1e-05 s⁻¹ | self-cleavage kobs at 10000 uM GlcN6P [2]: < 1e-05 s⁻¹

AUAAAAGCGCCAUAACUACAGAAAUGUAGUUGACGAGGAGGAGGUUUAUGGAAUUUUCGGCGGAUGACUCCAAA
self-cleavage kobs at 40 uM GlcN6P [1]: 0.000194 ± 4.6e-05 s⁻¹ | self-cleavage kobs at 160 uM GlcN6P [4]: 0.000278 ± 4.6e-05 s⁻¹ | self-cleavage kobs at 2500 uM GlcN6P [3]: 0.000138 ± 2.2e-05 s⁻¹ | self-cleavage kobs at 10000 uM GlcN6P [2]: 0.000101 ± 2.5e-05 s⁻¹

AUAAAAGCGCCGGAACUACAGAAAUGUAGUUGACGAGGAGGAGGUUUCUCGAAUUUUCGGCGGAUGCCUCCAAA
self-cleavage kobs at 40 uM GlcN6P [1]: < 1e-05 s⁻¹

AUAAAAGCGCCAGAACUACAGAAAUGUAGUUGACGAGGAGCAGGUUUAUAGAAUUUUCGGCGUAUGACUCCAAA
self-cleavage kobs at 40 uM GlcN6P [1]: < 1e-05 s⁻¹ | self-cleavage kobs at 10000 uM GlcN6P [2]: < 1e-05 s⁻¹

AUAAAAGCGCCAGAACUACAGAAAUGUAGUUGACGAGGAGGCGGUUUAUCGAAUUUUCGGCGGAGGCCUCCAAA
self-cleavage kobs at 40 uM GlcN6P [1]: < 1e-05 s⁻¹ | self-cleavage kobs at 160 uM GlcN6P [4]: < 1e-05 s⁻¹ | self-cleavage kobs at 640 uM GlcN6P [5]: < 1e-05 s⁻¹

AUAAAAGCGUCAGAUCUACAGAAAUGUAGUUGACGAGGAGGAGUUGUAUCGAAUUUUCGGCGUGUGCCUCCAAA
self-cleavage kobs at 40 uM GlcN6P [1]: < 1e-05 s⁻¹ | self-cleavage kobs at 10000 uM GlcN6P [2]: < 1e-05 s⁻¹

AUAAAAGCGCGAGAACUACAGAAAUGUAGUUGACGAGGAGGAGGUUUAUCGAAAUUUCGGCGGAUGCCUCCAAA
self-cleavage kobs at 40 uM GlcN6P [1]: < 1e-05 s⁻¹

AUAAAAGCGCCAGAACUACAGAAAUGUAGUUGAUGUGGAGGAGGUUUAUCGAAUUUUCGGCGGAUACCUCCAAA
self-cleavage kobs at 40 uM GlcN6P [1]: < 1e-05 s⁻¹ | self-cleavage kobs at 10000 uM GlcN6P [2]: < 1e-05 s⁻¹

Reference: the supplement of paper PMC7125110
